# Test results reported in paper PMC2923267 (Biochemistry, 2010).
# B1: WbpE from Pseudomonas aeruginosa PAO1 (enzyme, UniProt Q9HZ76 1-359, looked up)
# chain: MIEFIDLKNQQARIKDKIDAGIQRVLRHGQYILGPEVTELEDRLADFVGAKYCISCANGTDALQIVQMALGVGPGDEVITPGFTYVATAETVALLGAKPVYVDIDPRTYNLDPQLLEAAITPRTKAIIPVSLYGQCADFDAINAIASKYGIPVIEDAAQSFGASYKGKRSCNLSTVACTSFFPSKPLGCYGDGGAIFTNDDELATAIRQIARHGQDRRYHHIRVGVNSRLDTLQAAILLPKLEIFEEEIALRQKVAAEYDLSLKQVGIGTPFIEVNNISVYAQYTVRMDNRESVQASLKAAGVPTAVHYPIPLNKQPAVADEKAKLPVGDKAATQVMSLPMHPYLDTASIKIICAALTN
# Target: the molecule itself
# Experiment: AUC
protein,measurement,value
B1,stoichiometry N,2
